Results on three molecules are retold here after patent US20230218721A1 (ZHEJIANG DOER BIOLOGICS, published 2023).

T1: glucose-dependent insulinotropic polypeptide receptor (GIPR) (human (printed as 'Humanized'), UniProt P48546 22-466)
T1 sequence (looked up): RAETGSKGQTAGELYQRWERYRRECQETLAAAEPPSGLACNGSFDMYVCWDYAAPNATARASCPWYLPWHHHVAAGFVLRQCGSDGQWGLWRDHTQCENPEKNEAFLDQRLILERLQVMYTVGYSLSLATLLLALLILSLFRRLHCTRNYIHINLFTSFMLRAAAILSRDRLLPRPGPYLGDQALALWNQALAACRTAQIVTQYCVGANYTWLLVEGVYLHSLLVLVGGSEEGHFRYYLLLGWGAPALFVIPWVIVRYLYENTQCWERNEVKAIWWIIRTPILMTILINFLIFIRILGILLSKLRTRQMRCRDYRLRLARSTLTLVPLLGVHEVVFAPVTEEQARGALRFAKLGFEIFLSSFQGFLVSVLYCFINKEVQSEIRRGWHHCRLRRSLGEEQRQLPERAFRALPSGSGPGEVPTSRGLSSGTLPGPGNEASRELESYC

B1: glucagon derivative P5YELAN (peptide)
peptide: YSEGTFTSDK([AEEA-AEEA-γGlu-C18 diacid])SKYLDSQAAQDFVQWLLAGGPSSGAPPPS-NH2
modifications: N-terminus assumed
SMILES: CC(C)C[C@H](NC(=O)[C@H](CC(C)C)NC(=O)[C@H](Cc1c[nH]c2ccccc12)NC(=O)[C@H](CCC(N)=O)NC(=O)[C@@H](NC(=O)[C@H](Cc1ccccc1)NC(=O)[C@H](CC(=O)O)NC(=O)[C@H](CCC(N)=O)NC(=O)[C@H](C)NC(=O)[C@H](C)NC(=O)[C@H](CCC(N)=O)NC(=O)[C@H](CO)NC(=O)[C@H](CC(=O)O)NC(=O)[C@H](CC(C)C)NC(=O)[C@H](Cc1ccc(O)cc1)NC(=O)[C@H](CCCCN)NC(=O)[C@H](CO)NC(=O)[C@H](CCCCNC(=O)COCCOCCNC(=O)COCCOCCNC(=O)CC[C@H](NC(=O)CCCCCCCCCCCCCCCCC(=O)O)C(=O)O)NC(=O)[C@H](CC(=O)O)NC(=O)[C@H](CO)NC(=O)[C@@H](NC(=O)[C@H](Cc1ccccc1)NC(=O)[C@@H](NC(=O)CNC(=O)[C@H](CCC(=O)O)NC(=O)[C@H](CO)NC(=O)[C@@H](N)Cc1ccc(O)cc1)[C@@H](C)O)[C@@H](C)O)C(C)C)C(=O)N[C@@H](C)C(=O)NCC(=O)NCC(=O)N1CCC[C@H]1C(=O)N[C@@H](CO)C(=O)N[C@@H](CO)C(=O)NCC(=O)N[C@@H](C)C(=O)N1CCC[C@H]1C(=O)N1CCC[C@H]1C(=O)N1CCC[C@H]1C(=O)N[C@@H](CO)C(N)=O
B2: glucagon derivative P9YELAN (peptide)
peptide: YSEGTFTSDK([AEEA-AEEA-γGlu-C20 diacid])SKYLDSQAAQDFVQWLLAGGPSSGAPPPS-NH2
modifications: N-terminus assumed
SMILES: CC(C)C[C@H](NC(=O)[C@H](CC(C)C)NC(=O)[C@H](Cc1c[nH]c2ccccc12)NC(=O)[C@H](CCC(N)=O)NC(=O)[C@@H](NC(=O)[C@H](Cc1ccccc1)NC(=O)[C@H](CC(=O)O)NC(=O)[C@H](CCC(N)=O)NC(=O)[C@H](C)NC(=O)[C@H](C)NC(=O)[C@H](CCC(N)=O)NC(=O)[C@H](CO)NC(=O)[C@H](CC(=O)O)NC(=O)[C@H](CC(C)C)NC(=O)[C@H](Cc1ccc(O)cc1)NC(=O)[C@H](CCCCN)NC(=O)[C@H](CO)NC(=O)[C@H](CCCCNC(=O)COCCOCCNC(=O)COCCOCCNC(=O)CC[C@H](NC(=O)CCCCCCCCCCCCCCCCCCC(=O)O)C(=O)O)NC(=O)[C@H](CC(=O)O)NC(=O)[C@H](CO)NC(=O)[C@@H](NC(=O)[C@H](Cc1ccccc1)NC(=O)[C@@H](NC(=O)CNC(=O)[C@H](CCC(=O)O)NC(=O)[C@H](CO)NC(=O)[C@@H](N)Cc1ccc(O)cc1)[C@@H](C)O)[C@@H](C)O)C(C)C)C(=O)N[C@@H](C)C(=O)NCC(=O)NCC(=O)N1CCC[C@H]1C(=O)N[C@@H](CO)C(=O)N[C@@H](CO)C(=O)NCC(=O)N[C@@H](C)C(=O)N1CCC[C@H]1C(=O)N1CCC[C@H]1C(=O)N1CCC[C@H]1C(=O)N[C@@H](CO)C(N)=O
B3: incretin analogue P3YELAN (peptide)
peptide: YSEGTFTSDK([γGlu-Palmitoyl])SKYLDSQAAQDFVQWLLAGGPSSGAPPPS-NH2
modifications: N-terminus assumed
SMILES: CCCCCCCCCCCCCCCC(=O)N[C@@H](CCC(=O)NCCCC[C@H](NC(=O)[C@H](CC(=O)O)NC(=O)[C@H](CO)NC(=O)[C@@H](NC(=O)[C@H](Cc1ccccc1)NC(=O)[C@@H](NC(=O)CNC(=O)[C@H](CCC(=O)O)NC(=O)[C@H](CO)NC(=O)[C@@H](N)Cc1ccc(O)cc1)[C@@H](C)O)[C@@H](C)O)C(=O)N[C@@H](CO)C(=O)N[C@@H](CCCCN)C(=O)N[C@@H](Cc1ccc(O)cc1)C(=O)N[C@@H](CC(C)C)C(=O)N[C@@H](CC(=O)O)C(=O)N[C@@H](CO)C(=O)N[C@@H](CCC(N)=O)C(=O)N[C@@H](C)C(=O)N[C@@H](C)C(=O)N[C@@H](CCC(N)=O)C(=O)N[C@@H](CC(=O)O)C(=O)N[C@@H](Cc1ccccc1)C(=O)N[C@H](C(=O)N[C@@H](CCC(N)=O)C(=O)N[C@@H](Cc1c[nH]c2ccccc12)C(=O)N[C@@H](CC(C)C)C(=O)N[C@@H](CC(C)C)C(=O)N[C@@H](C)C(=O)NCC(=O)NCC(=O)N1CCC[C@H]1C(=O)N[C@@H](CO)C(=O)N[C@@H](CO)C(=O)NCC(=O)N[C@@H](C)C(=O)N1CCC[C@H]1C(=O)N1CCC[C@H]1C(=O)N1CCC[C@H]1C(=O)N[C@@H](CO)C(N)=O)C(C)C)C(=O)O

Starred links: 1 amine or outer side, 2 acyl side, 3 side chain; linkers in the order of their positions; H or OH if unused. Groups on a side chain read outwards from the residue. No end group written: not given here. *: point of attachment. C20 diacid = O=C(O)CCCCCCCCCCCCCCCCCCC(=O)*; C18 diacid = O=C(O)CCCCCCCCCCCCCCCCC(=O)*; γGlu = O=C(O)[C@H](CCC(=O)[*:2])N[*:1]; Palmitoyl = CCCCCCCCCCCCCCCC(=O)*; AEEA = NCCOCCOCC(=O)O

The target of the first assay is human glucagon-like peptide-1 receptor (GLP-1R) (human (printed as 'Humanized'), UniProt P43220 24-463). The assay is described as follows: cell-based or functional assay.
As to B1, the “GLP-1R agonist activity (EC50, nM)” value worked out at 0.81 nM.
Same read-out and setting: the value for B2 was 4.25 nM.
Regarding B3, the “GLP-1R agonist activity (EC50, nM)” value is 0.11 nM.

The next assay deals with glucagon receptor (GCGR) (human (printed as 'Humanized'), UniProt P47871 26-477). Description: cell-based or functional assay.
Chain of glucagon receptor (GCGR) (P47871 26-477): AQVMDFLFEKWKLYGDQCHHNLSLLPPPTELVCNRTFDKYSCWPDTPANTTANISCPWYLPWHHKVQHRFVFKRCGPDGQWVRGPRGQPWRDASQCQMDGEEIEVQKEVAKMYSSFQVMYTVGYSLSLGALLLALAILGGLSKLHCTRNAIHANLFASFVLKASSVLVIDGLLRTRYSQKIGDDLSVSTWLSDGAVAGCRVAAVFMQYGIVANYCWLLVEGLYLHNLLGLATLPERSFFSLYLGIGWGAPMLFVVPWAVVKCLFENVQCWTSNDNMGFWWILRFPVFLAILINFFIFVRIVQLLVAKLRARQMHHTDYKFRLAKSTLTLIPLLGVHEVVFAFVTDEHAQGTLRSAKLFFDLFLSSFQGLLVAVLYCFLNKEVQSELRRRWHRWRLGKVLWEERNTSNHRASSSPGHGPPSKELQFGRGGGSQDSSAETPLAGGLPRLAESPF
On to B1, for which the “GCGR agonist activity (EC50, nM)” value is 5.87 nM.
As for B2, the “GCGR agonist activity (EC50, nM)” value came out at 4.77 nM.
The same measure, in the same setting: under B3 stands 4.57 nM.

The next assay concerns the target T1, glucose-dependent insulinotropic …. The assay is described as follows: cell-based or functional assay.
On to B1, for which the “GIPR agonist activity (EC50, nM)” value is 1.56 nM.
The same measure, in the same setting: the value for B2 was 0.19 nM.
On the same count and under the same terms, the value for B3 was 0.004 nM.
